Experiments:
[1] = target: H3 Mini-HA cluster 1+2+3+4+5+6+7-N405E (influenza A virus H3N2, UniProt O11283 17-566); assay: FACS, HEK293F cells
[2] = target: H3 Mini-HA cluster 1+2+3+4+5+6+7-N405A (influenza A virus H3N2, UniProt O11283 17-566); assay: FACS, HEK293F cells
[3] = target: H3 Mini-HA cluster 1+2+3+4+5+6+7-N405D (influenza A virus H3N2, UniProt O11283 17-566); assay: FACS, HEK293F cells
[4] = target: H3 Mini-HA cluster 1+5 N405A (influenza A virus H3N2, UniProt O11283 17-566); assay: FACS on HEK293F [D00010 FIG. 8B]
[5] = target: H3 Mini-HA cluster 1+5 N405D (influenza A virus H3N2, UniProt O11283 17-566); assay: FACS on HEK293F [D00010 FIG. 8B]
[6] = target: H3 Mini-HA cluster 1+5 N405E (influenza A virus H3N2, UniProt O11283 17-566); assay: FACS on HEK293F [D00010 FIG. 8B]
[7] = target: full-length HA of H1 A/Brisbane/59/2007 with cleavage site mutation R343Q (influenza A virus H1N1, UniProt B4URD6 18-565); assay: FACS, HEK293F cells
[8] = target: miniHA cluster1+4 (A/Brisbane/59/2007) (influenza A virus H1N1, UniProt A8C8J4 18-565); assay: FACS on HEK293F

B1: CR9114 (antibody, V domains shown)
VH: QVQLVQSGAEVKKPGSSVKVSCKSSGGTSNNYAISWVRQAPGQGLDWMGGISPIFGSTAYAQKFQGRVTISADIFSNTAYMELNSLTSEDTAVYFCARHGNYYYYSGMDVWGQGTTVTVSS
VL: SYVLTQPPAVSGTPGQRVTISCSGSDSNIGRRSVNWYQQFPGTAPKLLIYSNDQRPSVVPDRFSGSKSGTSASLAISGLQSEDEAEYYCAAWDDSLKGAVFGGGTQLTVL
- binding result [1]: no binding (tested: 5 microgram/ml)
- binding result [2]: no binding (tested: 5 microgram/ml)
- binding result [3]: no binding (tested: 5 microgram/ml)
- binding result [4]: no binding (tested: 5 ug/ml)
- binding result [5]: no binding (tested: 5 ug/ml)
- binding result [6]: no binding (tested: 5 ug/ml)

B2: CR8057 (antibody, V domains shown)
VH: EVQLVESGGGLVQPGGSLRLSCAASGFTDSVIFMSWVRQAPGKGLECVSIIYIDDSTYYADSVKGRFTISRHNSMGTVFLEMNSLRPDDTAVYYCATESGDFGDQTGPYHYYAMDV
VL: QSALTQPASVSGSPGQSITISCTGSSGDIGGYNAVSWYQHHPGKAPKLMIYEVTSRPSGVSDRFSASRSGDTASLTVSGLQAEDEAHYYCCSFADSNILI
- binding result [7]: no binding (tested: 5 microgram/ml)
- binding result [8]: no binding (tested: 5 ug/ml)
- binding result [4]: no binding (tested: 5 ug/ml)
- binding result [5]: no binding (tested: 5 ug/ml)
- binding result [6]: no binding (tested: 5 ug/ml)

B3: CR6261 (antibody, V domains shown)
VH: EVQLVESGAEVKKPGSSVKVSCKASGGPFRSYAISWVRQAPGQGPEWMGGIIPIFGTTKYAPKFQGRVTITADDFAGTVYMELSSLRSEDTAMYYCAKHMGYQVRETMDVWGKGTTVTVSS
VL: QSVLTQPPSVSAAPGQKVTISCSGSSSNIGNDYVSWYQQLPGTAPKLLIYDNNKRPSGIPDRFSGSKSGTSATLGITGLQTGDEANYYCATWDRRPTAYVVFGGGTKLTVLG
- binding result [4]: no binding (tested: 5 ug/ml)
- binding result [5]: no binding (tested: 5 ug/ml)
- binding result [6]: no binding (tested: 5 ug/ml)
